In one test the target is T1, huCLL1-K244-Avi-Tev-His (human, UniProt Q5QGZ9 65-265).
T1 construct: extracellular domain
T1 sequence (looked up): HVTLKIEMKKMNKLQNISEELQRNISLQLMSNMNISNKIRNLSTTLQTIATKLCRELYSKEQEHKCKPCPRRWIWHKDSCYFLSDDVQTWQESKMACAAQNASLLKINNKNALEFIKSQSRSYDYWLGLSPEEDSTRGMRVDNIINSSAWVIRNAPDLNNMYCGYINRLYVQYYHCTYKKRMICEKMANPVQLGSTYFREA
The test is described as follows: BLI. In general terms: In BLI a coated tip is dipped into the sample, and binding shifts an interference pattern.

The target in another test is T2, huCLL1-Q244-Avi-Tev-His (human, UniProt Q5QGZ9 65-265).
T2 construct: extracellular domain; also called CLL-1 K244Q
T2 sequence (looked up): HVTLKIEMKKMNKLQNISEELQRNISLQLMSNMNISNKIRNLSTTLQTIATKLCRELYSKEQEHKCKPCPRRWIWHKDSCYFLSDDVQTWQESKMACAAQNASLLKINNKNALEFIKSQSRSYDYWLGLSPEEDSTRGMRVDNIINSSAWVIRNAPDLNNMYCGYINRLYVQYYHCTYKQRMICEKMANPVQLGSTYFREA
Nature of the test: BLI.

B1: Polypeptide No. 163 (scFv, V domains shown)
VH: QVQLVQSGAEVKKPGASVKVSCKASGYTFTSYYMQWVRQAPGQGLEWMGWMNPNSGNTGYAQKFQGRVTMTRDTSTSTVYMELSSLRSEDTAVYYCARALYGDYLDIWGQGTTVTVSS
VL: DIQMTQSPSSLSASVGDRVTITCRASQPIATWLAWYQQKPGKAPKLLIYDTSSLQSGVPSRFSGSGSGTDFTLTISSLQPEDFATYYCQQSYSLPLGFGQGTKVEIKR
notes: scFv
Turning to B1, the binding result with huCLL1-K244-Avi-Tev-His and in the test with huCLL1-Q244-Avi-Tev-His was “binds” in each case.

B2: Polypeptide No. 172 (scFv, V domains shown)
VH: QVQLVQSGAEVKKPGASVKVSCKASGYTFSDYYVHWVRQAPGQGLEWMGWMNPNSGNTGYAQKFQGRVTMTRDTSTSTVYMELSSLRSEDTAVYYCARGLTGDQFDYWGQGTLVTVSS
VL: not shown
notes: scFv
Turning to B2, the binding result with huCLL1-K244-Avi-Tev-His and with huCLL1-Q244-Avi-Tev-His was “binds” in each case.

B3: Polypeptide No. 169 (scFv, V domains shown)
VH: QVQLVQSGAEVKKPGASVKVSCKASGYTFTNDYIHWVRQAPGQGLEWMGWMSPNSGKTGFAQKFQGRVTMTRDTSTSTVYMELSSLRSEDTAVYYCAKDNSSGWYFDLWGRGTLVTVSS
VL: DIQMTQSPSSLSASVGDRVTITCRVSQGISSYLAWYQQKPGKAPKLLIYDASNLETGVPSRFSGSGSGTDFTLTISSLQPEDFATYYCQQYDTLPITFGQGTRLEIKR
notes: scFv
With B3, the binding result in the test with huCLL1-K244-Avi-Tev-His and with huCLL1-Q244-Avi-Tev-His was “binds” throughout.

B4: Polypeptide No. 164 (scFv, V domains shown)
VH: QVQLVQSGAEVKKPGASVKVSCKASGYTFTAHYIHWVRQAPGQGLEWMGIINPNGGRTTYAQKFQGRVTMTRDTSTSTVYMELSSLRSEDTAVYYCARDSDFWSGYYSDYYYGMDVWGQGTTVTVSS
VL: DIQMTQSPSSLSASVGDRVTITCQASQDISNFLNWYQQKPGKAPKLLIYATSTLQSGVPSRFSGSGSGTDFTLTISSLQPEDFATYYCQQSYTTEWTFGQGTKVEIKR
notes: scFv
With B4, the binding result in the test with huCLL1-K244-Avi-Tev-His and in the test with huCLL1-Q244-Avi-Tev-His was “binds” each time.

B5: Polypeptide No. 161 (scFv, V domains shown)
VH: QVQLVQSGAEVKKPGASVKVSCKASGYTFTSYDINWVRQAPGQGLEWMGMINPNSGGTSYAQKFQGRVTMTRDTSTSTVYMELSSLRSEDTAVYYCARELLGESFDYWGQGTLVTVSS
VL: DIQMTQSPSSLSASVGDRVTITCRASQGISSYLAWYQQKPGKAPKLLIYGASILQSGVPSRFSGSGSGTDFTLTISSLQPEDFATYYCQQSYSTSFTFGPGTKVDIKR
notes: scFv
B5: the binding result with huCLL1-K244-Avi-Tev-His and in the test with huCLL1-Q244-Avi-Tev-His was “binds” in each case.

B6: Polypeptide No. 167 (scFv, V domains shown)
VH: QVQLVQSGAEVKKPGASVKVSCKASGYTFTSYYMHWVRQAPGQGLEWMGWINPNSGGTNYAQKFQGRVTMTRDTSTSTVYMELSSLRSEDTAVYYCARGTTGDDFDYWGQGTLVTVSS
VL: DIQMTQSPSSLSASVGDRVTITCRASQDISTWLAWYQQKPGKAPKLLIYAASSLQSGVPSRFSGSGSGTDFTLTISSLQPEDFATYYCQQSYSIPPTFGPGTKVDIKR
notes: scFv
Consider B6, for which the binding result with huCLL1-K244-Avi-Tev-His and with huCLL1-Q244-Avi-Tev-His was “binds” each time.

B7: Polypeptide No. 162 (scFv, V domains shown)
VH: QVQLVQSGAEVKKPGASVKVSCKASGYTFTNYGISWVRQAPGQGLEWMGWINPNSGGTNFAQKFQGRVTMTRDTSTSTVYMELSSLRSEDTAVYYCARGTNGDELDYWGQGTLVTVSS
VL: not shown
notes: scFv
For B7, the binding result with huCLL1-K244-Avi-Tev-His and with huCLL1-Q244-Avi-Tev-His was “binds” throughout.

B8: Polypeptide No. 159 (scFv, V domains shown)
VH: QVQLVQSGAEVKKPGASVKVSCKASGYSFTANYIHWVRQAPGQGLEWMGIINPSGGSTSYAQKFQGRVTMTRDTSTSTVYMELSSLRSEDTAVYYCARGNYGDYVEDWGQGTLVTVSS
VL: DIQMTQSPSSLSASVGDRVTITCRASQSISSWLAWYQQKPGKAPKLLIYDASNLETGVPSRFSGSGSGTDFTLTISSLQPEDFATYYCQQSYGTPLTFGGGTKVEIKR
notes: scFv
For the molecule B8, the binding result with huCLL1-K244-Avi-Tev-His and in the test with huCLL1-Q244-Avi-Tev-His was “binds” in each case.

B9: Polypeptide No. 170 (scFv, V domains shown)
VH: QVQLVQSGAEVKKPGASVKVSCKASGGSFSNHGVSWVRQAPGQGLEWMGWMNPNSGDTGYAQKFQGRVTMTRDTSTSTVYMELSSLRSEDTAVYYCARPRKDDAFAIWGQGTLVTVSS
VL: DIQMTQSPSSLSASVGDRVTITCRASQSISSWLAWYQQKPGKAPKLLIYEASTLQSGVPSRFSGSGSGTDFTLTISSLQPEDFATYYCQQSYSTPLTFGQGTKVEIKR
notes: scFv
On to B9, for which the binding result with huCLL1-K244-Avi-Tev-His and with huCLL1-Q244-Avi-Tev-His was “binds” in each case.

B10: Polypeptide No. 166 (scFv, V domains shown)
VH: QVQLVQSGAEVKKPGASVKVSCKASGYTFESYDMNWVRQAPGQGLEWMGWIDPHSGDTNFAQKFQGRVTMTRDTSTSTVYMELSSLRSEDTAVYYCARADYGGNADYWGQGTLVTVSS
VL: DIQMTQSPSSLSASVGDRVTITCRASQGISNWLAWYQQKPGKAPKLLIYDASNLETGVPSRFSGSGSGTDFTLTISSLQPEDFATYYCQQSYSTPYTFGQGTKVEIKR
notes: scFv
On to B10, for which the binding result with huCLL1-K244-Avi-Tev-His and in the test with huCLL1-Q244-Avi-Tev-His was “binds” throughout.

B11: Polypeptide No. 160 (scFv, V domains shown)
VH: QVQLVQSGAEVKKPGASVKVSCKASGGTFTSYDINWVRQAPGQGLEWMGWINPHSGGTNYAQKFQGRVTMTRDTSTSTVYMELSSLRSEDTAVYYCARLVGGDAFDIWGQGTMVTVSS
VL: DIQMTQSPSSLSASVGDRVTITCRASQSISSWLAWYQQKPGKAPKLLIYAASSLQGGVPSRFSGSGSGTDFTLTISSLQPEDFATYYCQQGYTTPLTFGPGTKVDIKR
notes: scFv
As for B11, the binding result with huCLL1-K244-Avi-Tev-His and in the test with huCLL1-Q244-Avi-Tev-His was “binds” in each case.

B12: Polypeptide No. 174 (scFv, V domains shown)
VH: EVQLLESGGGLVQPGGSLRLSCAASGFIFRDHWMHWVRQAPGKGLEWVSSIDFSTGYIYYADSVKGRFTISRDNSKNTLYLQMNSLRAEDTAVYYCARDPWGDGDFDYWGRGTLVTVSS
VL: DIQMTQSPSSLSASVGDRVTITCRASQSISSWLAWYQQKPGKAPKLLIYAASSLQSGVPSRFSGSGSGTDFTLTISSLQPEDFATYYCQQTYTTPYTFGQGTRLEIKR
notes: scFv
Regarding B12, the binding result in the test with huCLL1-K244-Avi-Tev-His and with huCLL1-Q244-Avi-Tev-His was “binds” each time.

B13: Polypeptide No. 176 (scFv, V domains shown)
VH: QVQLVQSGAEVKKPGASVKVSCKASGGSFTSYYIHWVRQAPGQGLEWVGWMNPNSGNTGYAQKFQGRVTMTRDTSTSTVYMELSSLRSEDTAVYYCARGATDDAFDIWGQGTMVTVSS
VL: DIQMTQSPSSLSASVGDRVTITCRASQNIDTWLAWYQQKPGKAPKLLIYDGSNLEAGVPSRFSGSGSGTDFTLTISSLQPEDFATYYCQQSYNTPITFGQGTRLEIKR
notes: scFv
For the molecule B13, the binding result with huCLL1-K244-Avi-Tev-His and with huCLL1-Q244-Avi-Tev-His was “binds” in each case.

B14: Polypeptide No. 175 (scFv, V domains shown)
VH: QVQLVQSGAEVKKPGASVKVSCKASGYTFTSYDIHWVRQAPGQGLEWMGWINPNSGNTGYAQKFQGRVTMTRDTSTSTVYMELSSLRSEDTAVYYCAGGPDVDAAMVLDYWGQGTLVTVSS
VL: DIQMTQSPSSLSASVGDRVTITCQASQDISNYLNWYQQKPGKAPKLLIYDASNLETGVPSRFSGSGSGTDFTLTISSLQPEDFATYYCQQADGFPPTFGGGTKVEIKR
notes: scFv
As to B14, the binding result in the test with huCLL1-K244-Avi-Tev-His and with huCLL1-Q244-Avi-Tev-His was “binds” each time.

B15: Polypeptide No. 165 (scFv, V domains shown)
VH: QVQLVQSGAEVKKPGASVKVSCKASGYTFTSYDINWVRQAPGQGLEWMGWMNPNSGNTGYAQKFQGRVTMTRDTSTSTVYMELSSLRSEDTAVYYCARLSSGYYPDYWGQGTLVTVSS
VL: DIQMTQSPSSLSASVGDRVTITCRASQFIANWLAWYQQKPGKAPKLLIYDASSLESGVPSRFSGSGSGTDFTLTISSLQPEDFATYYCQQSYSTPLTFGGGTKVEIKR
notes: scFv
With B15, the binding result with huCLL1-K244-Avi-Tev-His and with huCLL1-Q244-Avi-Tev-His was “binds” each time.

B16: Polypeptide No. 173 (scFv, V domains shown)
VH: QVQLVQSGAEVKKPGASVKVSCKASGYTFNGYNMHWVRQAPGQGLEWMGWINPNSGDTNYAQKFQGRVTMTRDTSTSTVYMELSSLRSEDTAVYYCASLDYGDYAVYWGQGTLVTVSS
VL: DIQMTQSPSSLSASVGDRVTITCRASQSISTWLAWYQQKPGKAPKLLIYDASSLRSGVPSRFSGSGSGTDFTLTISSLQPEDFATYYCQQSYSTPITFGQGTKVEIKR
notes: scFv
On to B16, for which the binding result in the test with huCLL1-K244-Avi-Tev-His and with huCLL1-Q244-Avi-Tev-His was “binds” each time.

B17: Polypeptide No. 171 (scFv, V domains shown)
VH: QVQLVQSGAEVKKPGASVKVSCKASGYTFTDYYIHWVRQAPGQGLEWMGMVDPNTGNINYAQTFQGRVTMTRDTSTSTVYMELSSLRSEDTAVYYCTSGSTNDAFDIWGQGTMVTVSS
VL: DIQMTQSPSSLSASVGDRVTITCRASQSIGPWLAWYQQKPGKAPKLLIYEASNLASGVPSRFSGSGSGTDFTLTISSLQPEDFATYYCQQSYSTPLTFGGGTKVEIKR
notes: scFv
On to B17, for which the binding result in the test with huCLL1-K244-Avi-Tev-His and with huCLL1-Q244-Avi-Tev-His was “binds” throughout.

B18: Polypeptide No. 168 (scFv, V domains shown)
VH: QVQLVQSGAEVKKPGASVKVSCKASGYTFTNYGISWVRQAPGQGLEWMGWINPNSGGTNYAQKFQGRVTMTRDTSTSTVYMELSSLRSEDTAVYYCARVRSDDFFDYWGQGTLVTVSS
VL: DIQMTQSPSSLSASVGDRVTITCRASQSVNHWLAWYQQKPGKAPKLLIYAASTLQSGVPSRFSGSGSGTDFTLTISSLQPEDFATYYCQQSYSLPLTFGGGTKVEIKR
notes: scFv
As to B18, the binding result with huCLL1-K244-Avi-Tev-His and with huCLL1-Q244-Avi-Tev-His was “binds” throughout.

Values taken from US20240101668A1 (WUGEN, published 2024).
